Read-outs that look alike come from different tables or passages of the source.
Key:
[1] = test system: human CRHR2; assay: CRH-induced luciferase reporter blocking assay, CHO-CRE-hCRHR2 cells; type: cell-based
In short: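 CHO-CRE reporter cells stably expressing mouse or human CRHR2 were treated with serially diluted antibodies (8 points, 1:4) plus CRH at final 5 nM (mCRHR2) or 0.1 nM (hCRHR2), 4-6 hours at 37° C. CRE-driven luciferase read by luminescence after 10 min with detection reagent.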

[2] = test system: mouse CRHR2; assay: CRH-induced luciferase reporter blocking assay, CHO-CRE-mCRHR2 cells; type: cell-based
In short: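 CHO-CRE cells stably expressing mouse CRHR2 were seeded overnight, then given serially diluted antibodies (8 points, 1:4) together with CRH at 5 nM final. After 4–6 h at 37 °C, CRE-driven luciferase was read by Bio-Glo luminescence.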

[3] = test system: constitutively high plasma ACTH in Mrap1 KO mice; assay: Mrap1 KO mice constitutively high ACTH model; type: in vivo, mouse; conditions: 20 mg/kg and 5 mg/kg, day 2 and day 16
Description: 8-10 week old wildtype female C57BL/6 mice were obtained from Charles River Laboratories. Mrap1 KO mice were obtained from Queen Mary University of London, UK. SSR125543A, a small molecule CRHR1 antagonist, was obtained from Axon Medchem (Cat #Axon 1799). Mouse Corticosterone (55-Corms-E01) and adrenocorticotropic hormone (ACTH) ELISA kits (21-ACTHU-E01) were obtained from ALPCO, USA. All procedures were carried out in accordance with the Guide for the Care and Use of Laboratory Animals of the National Institutes of Health. Protocols were approved by Charles River Laboratories Institutional Animal Care and Use Committee (IACUC).
To generate Mrap1 KO mice, Mrap1−/− male mice were bred with Mrap1+/− female mice. Corticosterone hormone replacement was performed by administering 50 μg/ml in drinking water to breeder cages when female mice were pregnant and their pregnancies palpable (approximately embryonic day 10). Drinking water was changed weekly, and treatment was stopped at weaning. Mice were uniquely identified with ear tags at the time of tail clipping to match future genotype with each mouse. DNA was extracted from tail tissue and used to genotype mice.
[…] On day 2 or 3, 14 and 28, 200 μl of blood was collected in EDTA tubes from the submandibular vein of each mouse. Plasma was separated using a refrigerated centrifuge (4° C. at 500×g for 10 min) and snap-frozen in dry ice for subsequent ACTH ELISA measurement.

[4] = target: T1, biotinylated CRH (Homo sapiens, UniProt P06850); assay: Affinity determination with Octet; type: binding
T1 construct: purchased GL Biochem 784751
T1 sequence (P06850 154-194): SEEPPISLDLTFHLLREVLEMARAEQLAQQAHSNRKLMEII
Description: Octet® Red 96e was used for affinity measurement. Octet® running buffer was prepared by diluting kinetics buffer 10× (Fortebio, Cat #18-1105) in PBS according to the manufacturer's instructions. Two columns of SA sensors (Fortebio, Cat #18-5019) were hydrated in running buffer for 10 mins, one for ligand capturing and the other for reference. Antibodies were 2-fold diluted and added into a 96-well plate. 30 nM biotinylated CRH (GL Biochem, Cat #784751) was captured by the first column of SA sensors for 20 seconds, while reference sensors were dipped into buffer wells. After a 60-second baseline step, sensors were dipped into analyte and buffer wells successively, with the association and dissociation time of 180 seconds and 800 seconds, respectively. Sensors were regenerated in glycine pH1.5 (Cytiva, Cat #BR-1003-54) before the next cycle. […] Signals of reference wells and reference sensors were subtracted by selecting “Double reference” before data fitting.

[5] = target: T2, N-terminal region plus central region, central region only, central region plus C-terminal region of CRH (Homo sapiens, UniProt P06850); assay: ELISA determining the binding region of CRH; conditions: dash = no binding
T2 construct: N-terminal region plus the central region (CT biotin), the central region only (NT biotin or CT biotin)
Description: Streptavidin (Thermo, Cat: 21125) was diluted in PBS to a concentration of 2 μg/ml. 100 μl of diluted streptavidin was added per well to ELISA microplates, and the plates were incubated overnight at 4° C. Plates were blocked with ELISA blocking solution (containing 2% w/v BSA, 0.05% (v/v) Tween-20, pH 7.4 PBS buffer) at 37° C. for 1 hour, and then incubated with 1 μg/mL N-terminal region plus the central region (CT biotin), the central region only (NT biotin or CT biotin), or the central region plus C-terminal region (NT biotin) of CRH for 1 hour at 37° C. Plates were then washed and incubated with diluted anti-CRH antibody (Ab) at 15 μg/ml (100 nM, 10 diluted, 8 points) for 1 hour at 37° C. Subsequently, plates were washed and incubated with HRP-conjugated goat anti-human IgG (H+L) antibody (Jackson, Cat: 109-035-088) at 37° C. for 1 hour. 100 μL of 3,3′,5,5′-tetramethylbenzidine (TMB) substrate (Biopanda, Cat: TMB-S-003) was added, and the plates were incubated at room temperature for 15 minutes. 100 μL of ELISA stopping solution (Solarbio, Cat #: C1058) was added to terminate the reaction, and the optical density at 450 nm (OD450 nm) was determined by an ELISA plate reader (Molecular Devices, Spectra max 384 plus).

[6] = CHO-CRE-hCRHR2 cells, 0.1 nM CRH

B1: PR302038: humanized variant of Series 5 mAb PR301777; VH SEQ ID NO: 256, VL SEQ ID NO: 311 (antibody, V domains shown)
VH: EMQLVESGGGLVQPGGSLRLSCAASGFTFSNYWMNWVRQAPGKGLEWVAEIRLKSNNYATHYAESVKGRFTISRDDSKSSVYLQMNSLKTEDTAVYYCTVGTLVYWGQGTLVTVSS
VL: EIVLTQSPATLSLSPGERATLSCRASQSVSTSTYNYMHWFQQKPGQAPRLLIKFASNLESGIPARFSGSGSGTDFTLTISSLEPEDTAVYYCQHSWEIPYTFGQGTKLEIK
modifications: PR302036 VH, PR302038 VH, PR302041 VH; PR302031 VL, PR302038 VL, PR302045 VL, PR302052 VL, PR302066 VL
[1]; [6]
  IC50: 5.96 nM
[2]; CHO-CRE-mCRHR2 cells, 5 nM CRH
  IC50: 6.17 nM
[3]
  plasma ACTH concentrations in Mrap1 KO mice, dose dependence: reduced plasma ACTH concentrations in Mrap1 KO mice, in a dose dependent manner

B2: PR302341: Series 10 anti-CRH mAb from immunized wildtype mice; VH SEQ ID NO: 280, VL SEQ ID NO: 339 (antibody, V domains shown)
VH: EVQLQQSGPELVKPGASVKMSCKASGYTFTDYFMKWVKQSHGESLEWIGVINPNNGDIFYNQKFKGKATLTVDKSSSTAFMQLNSLTSEDSAVYSCARGTDRALFAYWGQGTLVAVSA
VL: DVLMTQTPLSLPVSLGDQASISCRSGQSIVHSDGNTYLEWYLQRPGQSPRLLIYKVSNRFSGVPDRFSGSGSGTDFTLKISRVGAEDLGIYYCFQGSHIPWTFGGGTKLEVK
modifications: PR302341-1 VH, PR302341-2 VH, PR302341-3 VH, PR302341-4 VH,PR302341-5 VH, PR302341-6 VH, PR302341 VH; PR302341-13 VL, PR302341-14 VL, PR302341-15 VL, PR302341-16 VL,PR302341-17 VL, PR302341-18 VL, PR302341 VL
[1]; [6]
  IC50: 0.244 nM
[1]; Table 9, hCRHR2
  IC50: ~2.18 nM
[2]; CHO-CRE-mCRHR2 cells, 5 nM CRH
  IC50: 0.849 nM
[2]; Table 9, mCrhr2
  IC50: 2.41 nM
[4]
  kdis: 2.18e-07 s⁻¹
  kon: 1.01e+06 M⁻¹ s⁻¹

B3: PR302309-18: humanized variant of Series 7 mAb PR302309; VH SEQ ID NO: 263, VL SEQ ID NO: 318 (antibody, V domains shown)
VH: QVQLVQSGAEVKKPGASVKVSCKASGYTFTNYGMNWVRQAPGQRLEWMGWINTYTGEPIYTDDFKGRVTITRDTSASTAYMELSSLRSEDTAVYYCARSTMITTGGVFAYWGQGTLVTVSS
VL: DVVMTQSPLSLPVTLGQPASISCRSSQTIVHSDGNTYLEWYQQRPGQSPRLLIYKVSNRFSGVPDRFSGSGSGTDFTLKISRVEAEDLGVYYCFQGSHVPWTFGGGTKVEIK
modifications: PR302309-15 VH, PR302309-18 VH; PR302309-17 VL, PR302309-18 VL, PR302309-19 VL, PR302309-2 VL,PR302309-8 VL
[5]; central plus C-terminal region CRH peptide, NT-biotin (SEQ ID NO: 483), read-out: ELISA EC50 C-Ter-CRH (NT-Bion)
  EC50: > 100 nM
[5]; central region CRH peptide, CT-biotin (SEQ ID NO: 485), read-out: ELISA EC50 Central-CRH (CT-Bion)
  EC50: > 100 nM
[5]; central region CRH peptide, NT-biotin (SEQ ID NO: 484), read-out: ELISA EC50 Central-CRH (NT-Bion)
  EC50: > 100 nM
[4]
  kdis: <1e-07 s⁻¹
  kon: 126000 M⁻¹ s⁻¹
